Results on two proteins are retold here after publication PMC8092406 (Proceedings of the National Academy of Sciences of the …, 2021).

The data set concerns the molecule itself. Description: negative-stain electron microscopy.

B1: Cp183-F97L (natural protein)
chain: MDIDPYKEFGATVELLSFLPSDFFPSVRDLLDTASALYREALESPEHCSPHHTALRQAILCWGELMTLATWVGVNLEDPASRDLVVSYVNTNMGLKLRQLLWFHISCLTFGRETVIEYLVSFGVWIRTPPAYRPPNAPILSTLPETTVVRRRGRSPRRRTPSPRRRRSQSPRRRRSQSRESQC
On to B1, for which the binding result is listed as “binds”.

B2: Cp149, CTD-less HBV core protein (domain or fragment)
chain: MDIDPYKEFGATVELLSFLPSDFFPSVRDLLDTASALYREALESPEHCSPHHTALRQAILCWGELMTLATWVGVNLEDPASRDLVVSYVNTNMGLKFRQLLWFHISCLTFGRETVIEYLVSFGVWIRTPPAYRPPNAPILSTLPETTVV
On to B2, for which the binding result is given as “binds”.
